For assay [1], the target named is T1, Heat shock protein HSP 90-alpha (human, UniProt P07900 2-732).
T1 construct: also called HSP90AA1
The assay is described as follows: IP from HDF supernatant, LFQ mass spectrometry; ratio against Fc control.

For assay [2], the target named is T2, Heat shock cognate 71 kDa protein (human, UniProt P11142 2-646).
T2 construct: also called HSPA8
Described as above.

For assay [3], the target named is T3, Filaggrin-2 (human, UniProt Q5D862 1-2391, limits assumed).
T3 construct: also called FLG2
The assay is described as above.

For assay [4], the target named is T4, 60 kDa heat shock protein, mitochondrial (human, UniProt P10809 27-573, limits assumed).
T4 construct: also called HSPD1; HSP60
T4 sequence (P10809 27-573 limits assumed): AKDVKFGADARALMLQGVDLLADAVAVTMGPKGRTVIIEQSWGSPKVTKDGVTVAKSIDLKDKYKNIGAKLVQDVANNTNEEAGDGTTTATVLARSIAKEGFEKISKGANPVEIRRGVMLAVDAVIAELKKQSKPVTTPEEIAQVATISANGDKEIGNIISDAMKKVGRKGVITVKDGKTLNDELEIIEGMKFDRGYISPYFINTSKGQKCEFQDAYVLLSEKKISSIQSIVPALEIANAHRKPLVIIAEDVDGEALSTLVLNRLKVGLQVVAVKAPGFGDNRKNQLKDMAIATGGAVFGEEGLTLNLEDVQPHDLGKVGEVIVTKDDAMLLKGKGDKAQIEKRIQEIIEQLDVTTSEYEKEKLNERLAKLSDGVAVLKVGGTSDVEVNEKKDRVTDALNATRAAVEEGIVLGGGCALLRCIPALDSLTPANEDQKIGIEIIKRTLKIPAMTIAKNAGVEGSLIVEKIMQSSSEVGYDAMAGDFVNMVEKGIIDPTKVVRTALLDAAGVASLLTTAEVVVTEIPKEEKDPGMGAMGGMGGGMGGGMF
The assay is described as above.

Assay [5] concerns the target T5, Heat shock protein HSP 90-beta (human, UniProt P08238 2-724).
T5 construct: also called HSP90AB1
The description is as above.

Assay [6] has as its target T6, Heat shock 70 kDa protein 1A/B (human, UniProt P0DMV9 2-641).
T6 construct: also called Heat shock 70 kDa protein 1B; HSPA1B
The description is as above.

The target of assay [7] is T7, Hornerin (human, UniProt Q86YZ3 1-2850, limits assumed).
T7 construct: also called HRNR
T7 sequence (Q86YZ3 whole entry): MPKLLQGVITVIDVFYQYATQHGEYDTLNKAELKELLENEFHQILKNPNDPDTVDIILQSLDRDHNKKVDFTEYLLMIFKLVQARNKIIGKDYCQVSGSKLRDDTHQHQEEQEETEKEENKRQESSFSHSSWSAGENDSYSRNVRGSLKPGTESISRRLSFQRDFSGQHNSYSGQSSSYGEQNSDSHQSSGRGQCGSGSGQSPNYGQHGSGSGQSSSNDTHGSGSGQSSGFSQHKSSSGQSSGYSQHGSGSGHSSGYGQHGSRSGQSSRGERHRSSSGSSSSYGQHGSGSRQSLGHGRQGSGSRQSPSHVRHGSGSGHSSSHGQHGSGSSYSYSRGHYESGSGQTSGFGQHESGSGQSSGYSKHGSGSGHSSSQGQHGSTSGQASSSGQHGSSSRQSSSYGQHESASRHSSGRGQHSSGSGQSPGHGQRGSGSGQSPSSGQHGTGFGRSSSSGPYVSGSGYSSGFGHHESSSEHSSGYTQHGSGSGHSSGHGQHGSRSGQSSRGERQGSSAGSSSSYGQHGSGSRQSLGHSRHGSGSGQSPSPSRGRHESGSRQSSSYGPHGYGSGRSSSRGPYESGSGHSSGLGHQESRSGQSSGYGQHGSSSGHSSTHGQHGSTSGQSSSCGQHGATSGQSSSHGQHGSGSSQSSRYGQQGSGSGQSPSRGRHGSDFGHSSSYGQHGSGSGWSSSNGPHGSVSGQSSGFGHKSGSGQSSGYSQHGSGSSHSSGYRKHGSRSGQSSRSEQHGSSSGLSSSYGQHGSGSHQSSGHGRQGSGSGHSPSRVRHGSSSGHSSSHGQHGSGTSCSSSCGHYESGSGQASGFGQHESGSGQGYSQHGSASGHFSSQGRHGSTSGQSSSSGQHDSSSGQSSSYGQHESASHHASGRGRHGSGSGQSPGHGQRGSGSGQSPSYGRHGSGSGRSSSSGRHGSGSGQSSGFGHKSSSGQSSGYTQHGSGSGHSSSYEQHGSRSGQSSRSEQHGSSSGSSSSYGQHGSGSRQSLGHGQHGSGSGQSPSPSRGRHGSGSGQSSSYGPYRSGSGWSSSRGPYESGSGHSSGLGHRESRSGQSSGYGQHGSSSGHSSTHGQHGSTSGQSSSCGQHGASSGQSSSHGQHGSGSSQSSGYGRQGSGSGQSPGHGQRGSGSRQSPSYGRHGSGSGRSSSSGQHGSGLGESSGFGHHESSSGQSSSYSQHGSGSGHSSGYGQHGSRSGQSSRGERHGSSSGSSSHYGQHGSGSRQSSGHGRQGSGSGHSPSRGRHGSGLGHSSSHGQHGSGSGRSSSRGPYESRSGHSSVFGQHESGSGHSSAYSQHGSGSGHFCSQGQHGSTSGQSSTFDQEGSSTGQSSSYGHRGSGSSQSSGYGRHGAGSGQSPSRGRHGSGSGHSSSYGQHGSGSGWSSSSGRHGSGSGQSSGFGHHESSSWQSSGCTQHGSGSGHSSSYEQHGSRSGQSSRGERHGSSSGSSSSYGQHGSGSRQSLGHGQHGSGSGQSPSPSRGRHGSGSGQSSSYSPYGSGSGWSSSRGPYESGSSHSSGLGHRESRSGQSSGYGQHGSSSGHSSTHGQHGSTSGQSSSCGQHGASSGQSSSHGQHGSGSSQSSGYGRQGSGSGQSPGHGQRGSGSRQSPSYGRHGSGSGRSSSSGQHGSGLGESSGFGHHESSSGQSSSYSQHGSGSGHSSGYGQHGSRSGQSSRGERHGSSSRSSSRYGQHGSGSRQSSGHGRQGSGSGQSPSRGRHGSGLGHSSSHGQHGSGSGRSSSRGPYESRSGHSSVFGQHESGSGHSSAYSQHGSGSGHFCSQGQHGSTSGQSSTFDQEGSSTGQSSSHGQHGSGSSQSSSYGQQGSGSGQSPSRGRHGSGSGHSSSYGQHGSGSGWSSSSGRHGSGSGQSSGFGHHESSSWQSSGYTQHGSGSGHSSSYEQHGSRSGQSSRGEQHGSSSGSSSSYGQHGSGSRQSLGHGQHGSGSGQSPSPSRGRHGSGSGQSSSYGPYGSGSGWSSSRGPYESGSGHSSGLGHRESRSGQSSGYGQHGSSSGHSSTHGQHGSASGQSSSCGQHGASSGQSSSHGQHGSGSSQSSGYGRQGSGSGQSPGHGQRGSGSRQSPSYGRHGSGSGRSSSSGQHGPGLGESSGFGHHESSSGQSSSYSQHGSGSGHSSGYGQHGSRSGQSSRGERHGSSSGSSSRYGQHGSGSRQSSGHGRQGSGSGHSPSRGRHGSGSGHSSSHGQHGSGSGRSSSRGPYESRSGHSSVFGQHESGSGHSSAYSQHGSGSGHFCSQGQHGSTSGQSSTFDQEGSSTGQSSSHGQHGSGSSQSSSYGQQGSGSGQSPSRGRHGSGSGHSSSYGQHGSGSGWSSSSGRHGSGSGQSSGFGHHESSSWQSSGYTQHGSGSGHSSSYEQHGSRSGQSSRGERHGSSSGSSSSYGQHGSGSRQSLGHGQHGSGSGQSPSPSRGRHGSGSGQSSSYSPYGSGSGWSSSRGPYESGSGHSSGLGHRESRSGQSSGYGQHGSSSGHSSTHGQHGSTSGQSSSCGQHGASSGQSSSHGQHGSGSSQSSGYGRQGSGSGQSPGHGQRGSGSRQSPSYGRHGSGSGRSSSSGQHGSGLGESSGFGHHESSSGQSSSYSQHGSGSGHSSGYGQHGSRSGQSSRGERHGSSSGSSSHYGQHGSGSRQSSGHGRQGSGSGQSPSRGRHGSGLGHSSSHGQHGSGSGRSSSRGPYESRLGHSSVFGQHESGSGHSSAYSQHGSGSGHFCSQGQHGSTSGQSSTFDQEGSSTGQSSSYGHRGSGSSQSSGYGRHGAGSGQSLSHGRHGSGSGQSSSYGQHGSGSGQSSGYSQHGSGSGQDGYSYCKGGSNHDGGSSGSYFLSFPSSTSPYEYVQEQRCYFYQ
The description is as above.

For assay [8], the target named is T8, LOX catalytic domain (catalytic domain of human LOX, 169-417) (human, UniProt P28300 170-417).
T8 construct: Expressed from pET28 in E. coli BL21 SHuffle, purified on HisTrap and labelled through its His tag for MST
T8 sequence: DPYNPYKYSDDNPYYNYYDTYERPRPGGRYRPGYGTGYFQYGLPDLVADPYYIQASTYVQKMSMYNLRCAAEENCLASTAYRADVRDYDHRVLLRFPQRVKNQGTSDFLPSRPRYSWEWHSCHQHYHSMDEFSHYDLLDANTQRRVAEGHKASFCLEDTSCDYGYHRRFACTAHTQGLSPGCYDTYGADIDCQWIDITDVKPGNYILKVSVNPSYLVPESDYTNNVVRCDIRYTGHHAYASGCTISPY
The assay can be described thus: ELISA, plate coated with LOX catalytic domain. On the procedure: A ninety-six-well plate (Nunc) was coated with LOX-catalytic domain, HSP70 or BSA at 10 μg/mL. After blocking with 2% BSA in PBS, the plate was incubated with Fc and Fc-LPD for 1 hour at 37° C. Bound antibodies were detected by peroxidase-conjugated antibody goat anti-human (Jackson ImmunoResearch). EC₅₀ was calculated with GraphPad Prism from […] curve fitting analysis.
The pYD5-Fc-LPD plasmid was used as a template in order to create point mutations in the three N-glycosylated sites N81, 97, 144 in the LPD, which are the N346, 362, 409 in our Fc-LPD construct with Q SEQ ID NO: 11. The mutations were performed with site-directed mutagenesis according to kit manufacturer instructions. EC₅₀ of generated Fc-LPD N346, 362, 409Q inhibitor was measured by ELISA (FIG. 1C) ranged from 10 to 2000 nM against the LOX catalytic domain (EC₅₀=58 nmol/L).

T5 sequence (P08238 2-724 limits assumed): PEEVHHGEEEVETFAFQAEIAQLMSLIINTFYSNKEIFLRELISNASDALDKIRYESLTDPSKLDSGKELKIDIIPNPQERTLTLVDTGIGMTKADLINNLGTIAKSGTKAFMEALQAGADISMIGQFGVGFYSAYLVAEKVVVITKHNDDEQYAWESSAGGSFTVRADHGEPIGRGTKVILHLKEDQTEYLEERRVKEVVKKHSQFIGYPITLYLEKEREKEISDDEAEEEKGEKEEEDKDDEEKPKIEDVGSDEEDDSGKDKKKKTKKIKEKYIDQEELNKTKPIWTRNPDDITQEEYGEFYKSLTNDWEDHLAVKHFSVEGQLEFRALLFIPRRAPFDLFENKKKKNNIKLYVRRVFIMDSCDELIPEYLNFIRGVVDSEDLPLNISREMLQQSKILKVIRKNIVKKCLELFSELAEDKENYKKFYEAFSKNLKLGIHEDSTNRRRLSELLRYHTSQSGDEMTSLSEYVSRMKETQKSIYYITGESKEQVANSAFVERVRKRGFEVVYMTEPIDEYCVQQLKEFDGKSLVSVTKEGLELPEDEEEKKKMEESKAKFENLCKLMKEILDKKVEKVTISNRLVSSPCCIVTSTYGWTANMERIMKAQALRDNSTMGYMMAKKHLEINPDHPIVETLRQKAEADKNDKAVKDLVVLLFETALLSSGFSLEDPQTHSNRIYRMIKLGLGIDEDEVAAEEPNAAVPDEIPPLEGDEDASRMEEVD
T6 sequence (P0DMV9 2-641 limits assumed): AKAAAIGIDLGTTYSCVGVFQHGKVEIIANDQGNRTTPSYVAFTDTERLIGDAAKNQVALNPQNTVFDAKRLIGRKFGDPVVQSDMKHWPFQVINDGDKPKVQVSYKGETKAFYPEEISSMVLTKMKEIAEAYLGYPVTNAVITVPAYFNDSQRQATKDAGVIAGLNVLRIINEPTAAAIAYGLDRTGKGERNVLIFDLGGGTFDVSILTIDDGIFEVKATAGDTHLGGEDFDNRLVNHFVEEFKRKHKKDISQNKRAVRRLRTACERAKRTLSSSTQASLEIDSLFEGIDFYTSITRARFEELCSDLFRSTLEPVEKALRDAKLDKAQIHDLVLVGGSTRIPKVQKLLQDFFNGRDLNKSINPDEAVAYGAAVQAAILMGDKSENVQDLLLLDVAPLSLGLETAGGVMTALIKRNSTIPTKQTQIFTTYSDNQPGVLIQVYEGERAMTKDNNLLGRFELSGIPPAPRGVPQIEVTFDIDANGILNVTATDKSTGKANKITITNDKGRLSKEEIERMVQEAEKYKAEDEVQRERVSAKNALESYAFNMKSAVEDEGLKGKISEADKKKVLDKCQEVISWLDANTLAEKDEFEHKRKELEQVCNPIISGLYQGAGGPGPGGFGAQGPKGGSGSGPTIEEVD

B1: Fc-LPD N346, 362, 409Q (Fc fusion)
chain: APPAAGQQQPPREPPAAPGAWRQQIQWENNGQVFSLLSLGSQYQPQRRRDPGAAVPGAAQASAQQPRTPILLIRDQRTAAARTRTAGSSGVTAGRPRPTARHWFQAGYSTSRAREAGASRAEQQTAPGEVPALSNLRPPSRVDGMVGD
notes: Fc-LPD with the three N-glycosylation sites N81, 97, 144 of the LPD (N346, 362, 409 in the construct) changed to Q by site-directed mutagenesis of pYD5-Fc-LPD; also called non-glycosylated form
B1: the “Ratio Fc-LPD-N346, 409, 456Q:Fc” value in assay [1] came to 0.2; in assay [2], 0.9; in assay [3], 0; in assay [4], 0.1; in assay [5], 1.8; in assay [6] it was 30. Moreover, the “Ratio Fc-LPD-N346, 409, 456Q:Fc” value in assay [7] is 0.2. The EC50 in assay [8] worked out at 58 nM.

Values taken from patent US20220049236A1 (YEDA RESEARCH AND DEVELOPMENT, published 2022).
